B1: 319 (protein)
chain: MTAAPSDKELLALLSQLTTAEKVLLLSGKSTWETPEIERLHVPSLKVSDGPNGARGAQFTDGTTAACFPACVSLAATFNRSLARQIGVALGEETQTKGAYVLLGPTVCPHRSPLGGRNFESFSEDPFLTGELASEYVVGLQSQRVAATVKHFAINEQDTRRFTVNETVSERAMREIYLRPFEIVVKKADPWCIMTSYPKVNGAYVDDQTTFLKDILRDEWKFKGLVMTDWGAASAAIANGIRNGLDLEMPGPPHRRQPAVVHKLIEDGKVDVKDIDDRVLPLLKLLRQTGKFTDRREPVPERAISRPEHEKLIREAGGEGVVLLKNSDGALPLKPSHLQNIAVLGPLAKHAAAHGGGSASLNCHYKISPFDAIKSRLPDSKLSYSKGAHVFRAYPDFVAGTRNRLGNPGFAADFYENLNLTGEPFYTEEYPRGSFMTLMNENVVTAKSARLSTAYSPNVSGKHYLSFSGMGPARLFINGEFQGEIKETAEAMSFLLGVQEERHLQYDFVTGKTYDIVIESTISPNPNAELYLADDQIAVHLGFVSQQEMDADVLSEAVSFAKDADVALIFVGNTPQWETEGQDMATMTLPADGSQDKLIAEVAKVNPNTIVIITTGVPVELPWLENVAAVVQAWYGGQETGNSILDVLLGEVNPSGRLPMSWPKKNEHTACYGHFGLDSWDSREVEYVEGVNVGYRHFDSQYGTEQEVMFPFGYGLSYSTFEHSACALSGTLDANDENAKITVAVTVHNTSDVAGSEVVQVYVTPPKSRTGVERPPKALVAFEKIHLNPGAQKDIQLTFKRDGAAFWSEARKLWEVEAGEHEVHVSTSSSPQDIKSTLVLGITKGFTFHP
modifications: Colletotrichum gloeosporioides
B2: 324 (protein, listed as Kluyveromyces marxianus)
chain: MSKFDVEQLLSELNQDEKISLLSAVDFWHTKKIERLGIPAVRVSDGPNGIRGTKFFDGVPSGCFPNGTGLASTFDRDLLETAGKLMAKESIAKNAAVILGPTTNMQRGPLGGRGFESFSEDPYLAGMATSSVVKGMQGEGIAATVKHFVCNDLEDQRFSSNSIVSERALREIYLEPFRLAVKHANPVCIMTAYNKVNGEHCSQSKKLLIDILRDEWKWDGMLMSDWFGTYTTAAAIKNGLDIEFPGPTRWRTRALVSHSLNSREQITTEDVDDRVRQVLKMIKFVVDNLEKTGIVENGPESTSNNTKETSDLLRKIAADSIVLLKNKNNILPLKKEDNIIVIGPNAKAKTSSGGGSASMNSYYVVSPYEGIVNKLGKEVDYTVGAYSHKSIGGLAESSLIDAAKPADAENSGLIAKFYSNPVEERSDDEEPFHVTKVNRSNVHLFDFKHEKVDPKNPYFFVTLTGQYVPQEDGDYIFSLQVYGSGLFYLNDELIIDQKHNQERGSFCFGAGTKERTKKLTLKKGQVYNVRVEYGSGPTSGLVGEFGAGGFQAGVIKAIDDDEEIRNAAELAAKHDKAVLIIGLNGEWETEGYDRENMDLPKRTNELVRAVLKANPNTVIVNQSGTPVEFPWLEDANALVQAWYGGNELGNAIADVLYGDVVPNGKLSLSWPFKLQDNPAFLNFKTEFGRVIYGEDIFVGYRYYEKLQRKVAFPFGYGLSYTTFELDISDFKVTDDKIAISVDVKNTGDKFAGSEVVQVYFSALNSKVSRPVKELKGFEKVHLEPGEKKTVNIDLELKDAISYFNEELGKWHVEAGEYLVSVGTSSDDILSVKEFKVEKELYWKGL
B3: 302 (protein, listed as Rhodococcus sp.)
chain: MTTRPDLTLEQQAALLSGHDFWSTEAIEEAGIPSVVLTDGPHGVRYQSGDSDHLGLHASLPATCFPLAVAVGSSWDRSVAEEVGRAVGREARALGVHVVLGPGVNIKRSPLCGRNFEYYSEDPLLSGVLGAAHVRGLQSVGVGACVKHFAANNQETDRMRVSADVDDRTLREIYLPAFERVVAEARPAAVMCSYNKVNGVSAAENRWLLTEVLREQWGFAGVVVSDWGAVADRVAGVTAGLDLEMPGSGGGTDRQVVDAVRDGRLDPRLVEASAHRVLALSDLVRPAAGDLDLDGQHALARRLAADCAVLLKNADGVLPLRRGQHVAVLGSFATTPRFQGGGSSHIAPTRVDPALDAVRALAAAHGLTVSAADGFPLGADGDARALLDEAVRVAAAADVAVVFAGLTEREESEGFDRDTLDLPPVQVALVRAVARAAPRTVVVLAHGGVVSLEGWHDEVDAILDGWLLGQAGGSAIADLLLGVATPSGHLAETVPLRLEDTPSYLNFPGEQGHVRYGEGVMVGYRGYETLRRAVRYPFGHGLSYTTFVTESLDVALGGDGTVAVRVRVRNAGDRAGKHVVQMYVATDAGPVRRPVRELRAFEKIELAPGEARDVELTLERRAFAYWDVELDDWVVAPGEYAIQVCADAATVLEARTVTLAGDVVSRPLSMESTVGEWFSHPTVGPAFLEVLAGATGSAPTPDPQEHAGLLRMVESIRMAQFLTFLPIPVPQEKLDELLALGGTVANSATDAAAGNRDHPAPTPPGQPGGP
B4: 4 (protein, listed as Microbacterium azadirachtae)
chain: MTLPPFDVDTVLAALTLEEKASLLSGLDDWYTQPLDRPGLPQRVPSIEVGDGPHGLRKETGVDMVWVPATGFPTASAMGASWDRQLMRRVAAAIGEEARAEGVQVVLGPGVNMKRSPLCGRNFEYFSEDPVHSGELGAAYVDGVQAVGVGTSLKHFAANNQEIERTRISVVADERTLRETYLSAFERVVTKADPWTVMCSYNRLLGVHASQNHWLLTEVLRDEWGYRGAVVSDWNAVHDRVAALRAGLDLEMPGTQGATDAEIVAAVQDGQLDIGVVDAAARRVLELVARAYPGADRVNGAVMDLGHAAGDRLTAEQLRLLRAAEHHELAREAAIGSMTLLRNETIPGGGGPALPLEEHSEGAVAVVGAFAEHARVQGGGSSGVDPTRIDAPLAAIRAIANGRVHYAPGYIYEVKNAYQDDNLAILAAHGVVTEEEKPRVARRSATLAKELQLAEAVQHLGKRPLSAAAERLIDEAAVIAGQAETIVVFAGLPLSYEQEANDRDTLALPADQVALILRMADVREKTGARLVVVLSNGSPVTMDPWHDRVDAIVEAWLGGQAVGSAVAEVLFGRSNPSGKLAETFPLALEDTPGFPNWLGERGTVLYGEGVFIGYRWYDALRREVRYPFGHGLSYTTFSYSDLRVDLVDAEVGRVTVTCTVTNTGDVAGQEVVQLYVGDPDAEVQRPLRELRGFEKVKIEAGESTRVRFELLNRDFAYWDSAAVRPDGKTGLWRREGGEFRIEVGASSRDIRLSESIVLSDDPSIPPLVPDAELLDIAASRFVQGHAG

Tests used:
Type in all cases: biochemical, Quillaja saponaria
[1] = Experiment 4-1: screening of glucosidases for deglycosylation with purified QS-18 (0.04 mg/ml) at pH 7.5 and room temperature; conditions: pH 7.5, room temperature, 20 h, clarified E. coli lysate, QS-18 2150 to QS-21 1988 by LCMS/MS
Method: Nucleotide sequences were sub-cloned into pET24b+ for expression. 10 uL of E. coli cells (One Shot® BL21(DE3) chemically competent E. coli) were transferred to each well of a 96 well PCR plate (prechilled on ice). 10 uL autoclaved water was added to the DNA, resuspended by pipetting, and 1 uL of plasmid DNA (15-30 ng) was transferred to the competent cells. Immediately after addition, the resulting mixture was mixed by pipetting. Cells were heat shocked by placing the plate in a thermal cycler at 42° C. for 30 seconds then transferred directly to an ice bath for 2 min. 100 uL sterile Lysogeny Broth (LB) medium was added to each well containing transformed cells. The content of each plate was transferred into a 96-deep well plate pre-aliquoted with 400 uL LB and the plate was incubated at 37° C. with shaking and 85% humidity for 1 hour. After outgrowth, 500 uL of sterile LB containing 100 ug/mL kanamycin was added to the plates containing cells and plates incubated at 37° C. with shaking overnight (18 hours) with humidity control (85%).
1000 mLs of Overnight Express Media was supplemented with 1 mL kanamycin 50 mg/mL and 20 mL of 50% v/v glycerol added (50 ug/mL kanamycin final and 1% glycerol). 96-Well Assay Block 2 mL plates were aliquoted with 380 uL of media per well. Pre-inoculum (20 uL) from transformation plates was added. The plates were sealed appropriately and incubated at 37° C. at 300 with shaking for 2 h. After 2 h the temperature was lowered to 20° C. and incubation continued for 20 h.
The liquid cultures were centrifuged for 10 minutes at 4° C. The supernatant was discarded, plates blotted on an absorbent material to remove residue and the plates frozen at −80° C.
Lysis buffer was prepared according to the following protocol: • 1. Polymyxin B sulphate (0.5 mg/mL) was suspended in 100 mM potassium phosphate pH 7.5 • 2. The mixture was sonicated until polymyxin B sulphate had dissolved • 3. Lysozyme (1 mg/mL) and benzonase (0.1 uL/mL lysis buffer) were added
2 copies of each cell pellet plate were removed from −80 degC freezer and allowed to thaw. 200 uL of lysis buffer was added to each well of one copy of the cell pellet plates. Plates were shaken at room temperature for 10 mins. 190 uL of cell pellet/lysis buffer was transferred to a corresponding fresh cell pellet plate. These plates were incubated at room temperature with shaking for 2 hours. Lysate was clarified by centrifugation (10 min, 4 degC).
QS-18 was obtained by analogous methods to Example 3, collecting a QS-18 containing phenyl fraction following phenyl treatment (presence of m/z corresponding to key components was confirmed by MS and the phenyl fraction then used without further treatment). QS-18 solution was prepared by diluting aqueous QS-18 (ca 1 mg/mL) with 100 mM potassium phosphate pH 7.5 to 0.2 mg/ml. 40 uL clarified lysate was transferred into fresh 96 well PCR plates. 10 uL QS-18 solution added to each well of lysate to a final concentration of 0.04 mg/ml. Incubated at room temperature with shaking for 20 h. Quenched with 50 uL MeCN and shaken at room temperature for 10 mins. Samples were analysed by LC-MS/MS using a Waters Acquity H class coupled to a Waters Xevo Tandem Quadrupole (TQD) Mass Spectrometer.
Enzyme activity was calculated as: […]
Candidate enzymes with % conversion >0.72%, i.e. >3 S.D. above negative control, were considered to be positive hits and are listed below in Table 7. Sample results are shown in FIG. 10 for a QS-21 standard, FIG. 11 for negative control and FIG. 12 for treatment with the glucosidase of SEQ ID No. 262.

[2] = Experiment 4-2: screening of glucosidases for deglycosylation with purified QS-18 (1 mg/ml) at pH 6 and 30 deg C; conditions: pH 6, 30 degC, 18 hrs, clarified lysate, LCMS/MS
Method: Lysates were prepared in an identical manner to Experiment 4-1 above, except the lysis buffer was prepared in 100 mM potassium phosphate buffer pH 6. QS-18 solution was prepared by dissolving QS-18 in 100 mM potassium phosphate buffer pH 6 (2 mg/mL).
12 uL clarified lysate was transferred into fresh 96 well PCR plates. 12 uL QS-18 solution was added (1 mg/ml final concentration), plates sealed and incubated overnight (30° C.) for 18 hrs. After quenching with 25 uL MeCN and shaking for 10 mins (RT), samples were analysed using the LC-MS/MS protocol described in Experiment 4-1 and enzyme activity determined in an analogous manner.

[3] = Experiment 4-4: screening of glucosidases for deglycosylation of QS-18 in crude bark extract (1 in 20 dilution) to QS-21; conditions: CBE 1 in 20 dilution, pH 6, 25 degC, 18 hours; % conversion of Middle Peak by UV HPLC
Method: Lysates were prepared as in Experiment 4-2.
Crude bark extract (CBE) was adjusted to pH 6 by dropwise addition of 2M NaOH with stirring. 25 uL of clarified lysate was transferred to a reaction plate, 22.5 ul of 100 mM potassium phosphate buffer pH 6 was added, 2.5 ul CBE at pH 6 was added. Reaction plates were sealed, incubated at 25 degC with shaking for 18 hours, then quenched by addition of 50 uL acetonitrile (MeCN). Quenched reaction plates were re-sealed and incubated at 20 degC with shaking for 10 min. The reaction plates were centrifuged (10 min, 4 degC) and analysed by UV HPLC with the method below:
Three key peaks of interest are apparent using this chromatography: Left Peak (retention time approximately 2.30-2.35 min) comprising mainly QS-17 family components; Middle Peak (retention time approximately 2.37-2.42 min) comprising mainly QS-18 family components and desglucosyl-QS-17 family components; and Right Peak (retention time approximately 2.44-2.50 min) comprising mainly QS-21 family components. Peak identity was supported by MS/MS.
Enzyme activity is calculated as the % conversion of the Middle Peak present in the crude bark extract: […]

| Molecule | Expt 4-1 % conv [1] | Expt 4-2 % conv [2] | Expt 4-4 % conv [3] |
| --- | --- | --- | --- |
| B1 | 10.2% | 0.4% | <3% |
| B2 | 13.6% | 0.9% | <3% |
| B3 | 17.2% | 2.1% | <3% |
| B4 | 0.4% | 0.6% | – |

— patent US20240026407A1, “MODIFICATION OF SAPONINS” (GLAXOSMITHKLINE BIOLOGICALS SA, priority 2020, published 2024)
